The text below walks through data of article PMC12225687.

Some targets named below: 1G4 TCR (human); 1G4-c50 TCR (human); 1G4-c53c50 TCR (human).
What all share (assay): flow cytometry on cells; PE-labelled pMHC multimer (HLA-A*02:01 with the … peptide) stained on Jurkat J1601 cells (human CD8α/β, TCRα/β CRISPR-KO) electroporated with TCR RNA, after overnight incubation; read-out % multimer+CD8+ cells, averages of two independent replicates
Background: A flow cytometer gives signals particle by particle.

“HLA-A*02:01 with the NY-ESO-1 157-165 peptide …, PE-labelled multimer (from UniProt P61769 21-119) (peptide-MHC)”: the results for the % of multimer+CD8+ Jurkat cells with 1G4 TCR (human), with 1G4-c50 TCR (human) and in the experiment with 1G4-c53c50 TCR (human) were 90.9%, 99.6% and 99.1%, respectively.
